According to US20200277385A1:

How the values were obtained:
[1] = molecular target: human CD303 antigen expressed on cells (human) (UniProt Q8WTT0); assay: cell-based or functional assay
[2] = molecular target: human CD303 antigen expressed on cells (human) (UniProt Q8WTT0); assay: flow cytometry on CAL-1 cells (experiment with BIIB059)
[3] = molecular target: human CD303 antigen expressed on cells (human) (UniProt Q8WTT0); assay: flow cytometry on CAL-1 cells transfected with CD303 (about 40,000-50,000 CD303/cell)

Sequence of human CD303 antigen expressed on cells (human) (Q8WTT0 whole entry): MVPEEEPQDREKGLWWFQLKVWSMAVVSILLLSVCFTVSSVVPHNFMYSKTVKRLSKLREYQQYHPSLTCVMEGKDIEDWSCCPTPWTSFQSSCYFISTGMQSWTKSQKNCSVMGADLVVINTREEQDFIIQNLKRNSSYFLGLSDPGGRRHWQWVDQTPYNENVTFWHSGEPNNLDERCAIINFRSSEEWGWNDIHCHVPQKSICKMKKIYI

B1: humanized antibody BIIB059 (antibody, INN chains, looked up, V domains shown)
VH: DVQLVESGGGLVKPGGSLRLSCAASGFTFSTYTMSWVRQAPGKGLEWVATISPGDSFGYYYPDSVQGRFTISRDNAKNSLYLQMNSLRAEDTAVYYCTRDIYYNYGAWFAYWGQGTLVTVSS
VL: DIQLTQSPSSLSASVGDRVTITCKASQSVDYDGDSYMNWYQQKPGKAPKLLIYAASTLESGVPSRFSGSGSGTDFTLTISSLQPEDFATYYCQQANEDPRTFGQGTKVEIK
ADCC Emax (% lysis), CAL-1 target cells [1]: 1.12 % lysis
Bmax (MFI) [2]: 11.8 MFI
EC50 [2]: 0.6 µg/mL
Bmax (MFI) [3]: 382 MFI
EC50 [3]: 0.784 µg/mL
